# Measured values: publication PMC2637432
# Target: human cytomegalovirus (HCMV)-encoded chemokine receptor US28, HA-tagged (human cytomegalovirus (HCMV)) (UniProt P69332)
# Chain of UniProt P69332 (P69332 whole entry): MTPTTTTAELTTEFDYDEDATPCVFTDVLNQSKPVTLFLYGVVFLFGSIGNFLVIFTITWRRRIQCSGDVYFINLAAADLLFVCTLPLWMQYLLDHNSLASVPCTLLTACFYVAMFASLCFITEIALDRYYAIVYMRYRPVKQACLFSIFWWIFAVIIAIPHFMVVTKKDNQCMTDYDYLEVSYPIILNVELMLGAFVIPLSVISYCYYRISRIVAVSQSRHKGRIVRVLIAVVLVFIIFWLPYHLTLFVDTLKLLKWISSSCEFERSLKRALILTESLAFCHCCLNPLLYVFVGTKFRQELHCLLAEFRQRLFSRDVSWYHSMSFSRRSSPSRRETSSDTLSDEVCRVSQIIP
substance,measurement,value
recombinant human Fractalkine (from UniProt P78423 25-341) (ligand),lowest Fractalkine concentration that blocked migration of US28-expressing SMC induced by 40 ng/ml RANTES (competition migration assay),10 ng/mL
